From patent publication US5807729A, “Metalloprotease having increased activity” (Novo Nordisk A/S, priority 1995, dated 1998)

Tests used:
[1] = system: FTC-labeled casein; test: Thermal stability profile, FTC-casein hydrolysis; assay type: biochemical; settings: 15 minutes at various temperatures, Universal buffer pH 7; FIG. 9
Experimental: Purified p45 metalloprotease or B.t. thermolysin (Boehringer Mannheim) (50 microliters, 0.1 mg/ml) are incubated at various temperatures for 15-minutes in Universal buffer, pH 7. Ten microliters of sample are then added to 30 microliters of Universal pH buffer (pH 7) and 20 microliters of FTC-labeled casein and are incubated at 37° C. for 1 hour. 150 microliters of 5% TCA is added to acidify and precipitate casein (1 hour at room temperature). […] Samples are then analyzed on the fluorimeter (slit width=2.5 nm; excitation freq.=490 nm; emission freq.=525 nm; integration time=2 sec).

[2] = system: Ac-Pro-Leu-Gly[2-mercapto-4-methyl-pentanoyl]-Leu-Gly-OEt; test: Hydrolysis of the thermolytic merc-peptide substrate (Ellman's reagent, 405 nm); assay type: biochemical
Experimental: The thermolytic substrate Ac-Pro-Leu-Gly[2-mercapto-4-methyl-pentanoyl]-Leu-Gly-OEt (i.e. the merc-peptide) is also used to further characterize the p45 metalloprotease and B.t. thermolysin.
Reaction mixtures contain 100 microliters of Ac-Pro-Leu-Gly[2-mercapto-4-methyl-pentanoyl]-Leu-Gly-OEt (1 mM, and 1 mM Ellman's reagent) and 100 microliters of either B.t. thermolysin or purified p45 metalloprotease (0-3 ug/ml) in sample buffer.

[3] = system: FAGLA: N-(3-[2-Furyl]Acryloyl)-Gly-Leu amide; test: FAGLA hydrolysis (345 nm); assay type: biochemical
Experimental: The thermolytic substrate FAGLA: N-(3-[2-Furyl]Acryloyl)-Gly-Leu amide is used to further characterize the p45 metalloprotease and B.t. thermolysin. Reaction mixtures contain 100 microliters of N-(3-[2-Furyl]Acryloyl)-Gly-Leu amide (FAGLA) (2 mM) and 100 microliters of various concentrations of either thermolysin (Boehringer Mannheim) or purified p45 metalloprotease. Thermolytic activity is determined as a decrease in absorbance at 345 nm on the recording spectrometer for one minute(Shimadzu, UV160U). The linear range of the assay for thermolysin is 10-500 ug/ml thermolysin in the assay mix.

[4] = system: FTC-labeled casein; test: Protease analysis using FTC-labeled casein; assay type: biochemical
Experimental: Samples are incubated at room temperature for 30 minutes.

[5] = system: pro-trypsin-like F. oxysporum protease; test: Processing of pro-trypsin-like F. oxysporum protease to active trypsin-like protease
Experimental: Activatable pro-trypsin-like F. oxysporum protease is determined in microtiter wells as released trypsin-like F. oxysporum protease (tryptic) activity from pro-trypsin-like F. oxysporum protease after a 40 minute pre-incubation at room temperature with purified Fusarium oxysporum metalloprotease (approximately 6 ug).
Processed pro-trypsin-like F. oxysporum protease(i.e. mature trypsin-like F. oxysporum protease) activity is determined directly from microtiter plates containing the pre-incubated metalloprotease/pro-trypsin-like F. oxysporum protease cocktail (total volume=100 microliters), and 100 microliters of substrate (87 mg/ml.L-BAPNA stock in DMSO diluted 50-fold in sample buffer). Again, active trypsin-like F. oxysporum protease is determined as an increase in absorbance at 405 nm immediately after L-BAPNA addition.
Purified pro-trypsin-like F. oxysporum protease is added to fresh A. oryzae fermentation broths containing the recombinant p45 metalloprotease (approximately 90 mg/L) and incubated for either 1, 2, or 3 hours at room temperature. Levels of pro-trypsin-like F. oxysporum protease in the incubation mixtures range from 100 ug/ml to 13 mg/ml.
Purified pro-trypsin-like F. oxysporum protease (100 ug/ml) is added to various amounts of either purified recombinant p45 metalloprotease or purified B.s. metalloprotease.

[6] = system: FTC-labeled casein; test: pH profile, FTC-casein hydrolysis; assay type: biochemical
Experimental: Purified p45 metalloprotease (10 microliters, 0.005 mg/ml) is added to 30 microliters of Universal pH buffer (pH 5-11.5), and 20 microliters of FTC-labeled casein are incubated at 37° C. for 1-hour. 150 microliters of 5% TCA is added to acidify and precipitate casein (1-hour at room temperature). […] Samples are then analyzed on the fluorimeter (slit width=2.5 nm; excitation freq.=490 nm; emission freq.=525 nm; integration time=2 sec).

[7] = system: pro-trypsin-like F. oxysporum protease; test: Second pH profile, pro-trypsin-like F. oxysporum protease assay; assay type: biochemical, Fusarium oxysporum; settings: 15 minutes, room temperature
Experimental: A second pH profile is determined utilizing the pro-trypsin-like F. oxysporum protease assay whereby p45 metalloprotease activity is determined based on the processing of pro-trypsin-like F. oxysporum protease to active trypsin-like F. oxysporum protease Reaction mixtures contain 125 ug of purified pro-trypsin-like F. oxysporum protease and 0.13 ug of purified p45 metalloprotease (i.e. a molar ratio of pro-trypsin-likeF. oxysporum protease/ p45=1750:1) are added to "universal-buffer" solutions prepared at different pH's (i.e. pH values of 2.72, 4.11, 5.2, 6.05, 6.46, 6.98, 8.18, 9.02, 10.03, and 11.01) and the reaction mixtures are incubated for 15 minutes at room temperature. After incubation, 5 microliters are taken from each sample and added to microtiter wells containing 90 microliters of sample buffer (i.e. 0.1M borate, 2 mM CaCl2, and 10 mM DMG, pH 6.5), and 10 microliters of phosphoramidon (20 ug). […] Phosphoramidon is added to inhibit p45 activity and stop any further maturation of pro-trypsin-like F. oxysporum protease.

[8] = system: succinyl-Ala-Ala-Ala-p-nitroanilide; test: Hydrolysis of succinyl-Ala-Ala-Ala-p-nitroanilide; assay type: biochemical
Excerpt: Both p45 metalloprotease and a neutral zinc endopeptidase secreted by Flavobacterium meningosepticum poorly hydrolyze the substrate N-[3-(2--furyl)acryloyl]-Leu-Gly-NH2. However, the neutral zinc endopeptidase secreted by Flavobacterium meningosepticum will hydrolyze the vertebrate elastase substrate succinyl-Ala-Ala-Ala-p-nitroanilide, a substrate that thermolysin cannot hydrolyze (Table 2). Therefore, succinyl-Ala-Ala-Ala-p-nitroanilide hydrolysis by the p45 metalloprotease is investigated. […] This effect further differentiates the p45 metalloprotease from other existing metalloproteases.

[9] = system: pro-trypsin-like Fusarium oxysporum protease; test: Proteolytic enzyme assay: tryptic activity released from pro-trypsin-like protease, L-BAPNA, 405 nm; assay type: biochemical
Experimental: Metalloprotease activity is measured as released trypsin activity from pro-trypsin-like Fusarium oxysporum protease deposited at the Deutsche Sammlung von Mikroorganismen, Gottingen, Germany under the number DSM 2672, after a 30-60 min pre-incubation at 25° C. in 0.1M Tris, 2 mM CaCl2, pH 7 (at lower pH, 100 mM borate, 10 mM DMG, 2 mM CaCl2 is used).
Metalloproteases contain a catalytic zinc metal center which participates in the hydrolysis of the peptide backbone. The active zinc center differentiates these proteases from calpains whose activities are dependent upon the presence of calcium. Confirmation of a protease as a metallo-protease is loss of proteolytic activity accomplished by removal of the zinc center with 1,10-phenanthroline (1 mM) followed by titration with Zn^2+ (0.1-100 μM) to restore full activity.
However, when combined the metalloprotease cleaves recombinant pro-trypsin-like Fusarium oxysporum protease disclosed, supra to yield the active tryptic protease. Metalloprotease activity is halted upon the addition of 1 mM 1,10-phenanthroline (Table 1).

B1: p45 Metalloprotease: metalloprotease purified from Fusarium oxysporum DSM 2672 broth, 45 kDa band; also produced recombinantly in A. oryzae (protein)
chain: MRFSDSLLLIGLSSLAGAHPSRRAPNPSPLSKRGLDLEAFKLPPMAEYVPQDEVPDDVSAKVVTKRADYTETAKDLVKSTFPKATFRMVTDHYVGSNGIAHVNFKQTVNGIDIDNADFNVNIGADGEVFSYGNSFYEGKIPGPLTKRDEKDPVDALKDTVDVLSLPVEADKAKAEKKSKNHYTFTGTKGTVSKPEAKLTYLVDENKELKLTWRVETDIVDNWLLTYVNAAKTDEVVGVVDYVNEATYKVYPWGVNDPSKGSRSTVENPWNLAASEFTWLSDGSNNYTTTRGNNGIAQVNPSGGSTYLNNYRPDSPSLKFEYDYSTSTTTPTTYRDASIAQLFYTANKYHDLLYLLGFTEQAGNFQTNNNGQGGVGNDMVILNAQDGSGTNNANFATPADGQPGRMRMYLWTYSTPQRDCSFDAGVVIHEYTHGLSNRLTGGPANSGCLPGGESGGMGEGWGDFMATAIHIQSKDTRASNKVMGDWVYNNAAGIRAYPYSTSLTTNPYTYKSVNSLSGVHAIGTYWATVLYEVMWNLIDKHGKNDADEPKFNNGVPTDGKYLAMKLVVDGMSLQPCNPNMVQARDAIIDADTALTKGANKCEIWKGFAKRGLGTGAKYSASSRTESFALPSGC
- optimum temperature for hydrolysis of FTC-casein [1]: 50 °C
- Specific Activity, substrate merc-peptide [2]: 57 AU/min*mg
- effectiveness at hydrolyzing the mercapto-peptide relative to B.s. thermolysin [2]: about 25 fold
- Specific Activity, substrate FAGLA [3]: 0.76 -AU/sec*mg
- specific activity for FAGLA, times lower than that of thermolysin [3]: approximately 250 times
- Specific Activity, substrate FTC-Labelled Casein [4]: 170 FU/min*mg
- FTC-casein hydrolysis relative to trypsin-like F. oxysporum protease ([4]; on a molar basis at pH 9): approximately 16 fold
- Specific Activity, substrate pro-trypsin [5]: 1.2 g trypsin/min*mg
- share of activatable pro-trypsin-like protease processed ([5]; A. oryzae broth with approx. 90 mg/L recombinant p45, pro-trypsin 100 ug/ml to 13 mg/ml, room temperature, within 1 hour): 80-100%
- moles of pro-trypsin-like protease processed per mole of metalloprotease ([5]; pro-trypsin-like protease 100 ug/ml, within 1 hr.): about 50 moles
- pH at which the protease functions optimally [6]: ~9.5
- optimum pH for hydrolysis of FTC-casein ([6]; universal pH buffers pH 5-11.5, 37° C., 1 hour, FIG. 10): 9.5
- level of processed pro-trypsin-like protease at pH 6.5 relative to the level at pH 9 [7]: approximately 24%
- pH of maximum levels of processed pro-trypsin-like protease ([7]; molar ratio pro-trypsin/p45 1750:1): 9.5
- Specific Activity, substrate Ala-Ala-Ala-pNA [8]: < 2 pmol pNA/min*mg
- hydrolysis of succinyl-Ala-Ala-Ala-p-nitroanilide ([8]; substrate 4.4 mM in 0.1M Tris, pH 8): neither, the p45 metalloprotease nor the B.s. thermolysin would hydrolyze
- specific activity relative to the conventional Bacillus metalloprotease ([9]; based on absorbance at 280 nm, preparative IEF fraction, FIG. 2): about 10 fold
- tryptic activity of the sample alone ([9]; sample alone): do not contain any tryptic activity
- Tryptic Activity ([9]; without 1,10-phenanthroline, without Zn2+): 1.33 Δ Abs/min × 10^-4
